Source: patent US20200289608A1 (FUJITA ACADEMY, published 2020)
Where no end group is shown, it is not given here.

Target: T1, cyclic nucleotide-gated channel beta 3 (CNGB3) (human, UniProt Q9NQW8 1-809, limits assumed)
T1 construct: Endogenous protein in patient material; also called human CNGB3
T1 sequence (looked up): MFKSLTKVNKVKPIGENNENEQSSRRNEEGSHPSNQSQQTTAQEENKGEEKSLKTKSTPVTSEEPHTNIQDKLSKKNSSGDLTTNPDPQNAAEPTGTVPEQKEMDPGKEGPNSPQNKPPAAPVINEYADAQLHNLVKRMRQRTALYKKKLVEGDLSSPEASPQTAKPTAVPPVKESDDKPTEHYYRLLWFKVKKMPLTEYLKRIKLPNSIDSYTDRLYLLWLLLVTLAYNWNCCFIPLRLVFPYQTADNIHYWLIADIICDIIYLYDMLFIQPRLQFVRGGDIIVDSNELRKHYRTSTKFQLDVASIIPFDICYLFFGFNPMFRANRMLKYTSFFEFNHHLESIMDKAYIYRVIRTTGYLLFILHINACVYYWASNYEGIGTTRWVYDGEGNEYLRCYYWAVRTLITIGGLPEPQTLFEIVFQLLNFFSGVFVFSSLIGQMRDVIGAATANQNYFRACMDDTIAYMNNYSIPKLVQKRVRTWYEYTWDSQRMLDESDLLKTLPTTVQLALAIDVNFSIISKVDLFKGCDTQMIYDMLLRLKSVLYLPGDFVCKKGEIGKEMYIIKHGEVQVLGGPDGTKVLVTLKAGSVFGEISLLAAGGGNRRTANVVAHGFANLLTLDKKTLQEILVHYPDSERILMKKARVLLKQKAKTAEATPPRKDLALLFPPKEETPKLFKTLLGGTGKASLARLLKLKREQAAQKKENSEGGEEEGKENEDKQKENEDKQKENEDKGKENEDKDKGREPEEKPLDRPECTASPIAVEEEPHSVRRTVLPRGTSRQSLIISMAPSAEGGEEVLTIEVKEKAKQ
Experiment: avidin blotting: serum exosome proteins after SDS-PAGE on PVDF, probed with 1.0 ug/mL biotinylated Z13 peptide and HRP-avidin
Protocol: The exosome was isolated from the serum using Exosome Isolation Kit (manufactured by Fujifilm Wako Pure Chemical Industries, Ltd.) according to the manufacturer's instruction. Specifically, first, the serum was centrifuged at 1,000×g at 4° C.° for 20 minutes, and the supernatant was recovered. The collected supernatant was centrifuged at 10,000×g at 4° C. for 30 minutes, and the supernatant was transferred to a new tube. Subsequently, 1.0 mL of the supernatant was mixed with exosome capture beads with a rotator at 4° C. for 180 minutes. Subsequently, after washing the capture beads, the exosome was eluted with 100 μL of an elution buffer and stored at −20° C.
An exosome isolated from 800 μL of serum was mixed with a concentrated Laemmli buffer to prepare a measurement sample. The measurement sample was isolated by SDS-PAGE and then transferred to a PVDF membrane. The PVDF membrane was blocked in 5% BSA-containing TBST (0.1 v/v % Tween-20) at room temperature for 60 minutes. The PVDF membrane after blotting was washed and incubated overnight at 4° C.° in 1.0 μg/mL of biotinylated Z13 peptide-containing TBST. […] The CNGB3 on the membrane was detected using a CCD camera system (manufactured by ATTO) and ECL prime (manufactured by GE Healthcare). […]

B1: biotinylated Z13 peptide (peptide)
peptide: VRRADNRPG
modifications: also: biotin bound, position not given here
notes: Synthesized by GenScript; used at 1.0 ug/mL as the probe in avidin blotting, detected with HRP-avidin
binding result: binds
